This note sets out measurements from patent publication US20210085800A1.

The target of this test is CD123 on the surface of EOL-1, KOPN-8 and MOLM-1 cells (UniProt P26951). Put plainly: cell-based or functional assay.
Chain of CD123 on the surface of EOL-1, KOPN-8 and MOLM-1 cells (P26951 19-378 limits assumed): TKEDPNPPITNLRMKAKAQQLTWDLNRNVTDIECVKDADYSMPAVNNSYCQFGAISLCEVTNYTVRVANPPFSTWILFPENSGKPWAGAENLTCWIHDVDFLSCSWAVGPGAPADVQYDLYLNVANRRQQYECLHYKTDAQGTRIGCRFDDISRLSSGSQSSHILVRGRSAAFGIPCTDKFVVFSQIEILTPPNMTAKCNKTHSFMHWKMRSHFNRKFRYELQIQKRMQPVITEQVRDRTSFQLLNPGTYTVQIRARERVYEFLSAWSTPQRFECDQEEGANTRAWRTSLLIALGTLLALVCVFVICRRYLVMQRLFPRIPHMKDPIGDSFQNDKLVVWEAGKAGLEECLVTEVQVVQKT

B1: huCD123-6Rv1.1-D2 (antibody, from a related filing, V domains shown)
VH: QFQLVQSGAEVVKPGASVKMSCKASGYTFTSSIMHWMKQKPGQGLEWIGYIKPYNDGTKYNQKFQGKATLTSDKSSSTANMELNSLTSEDSAVYYCAREGGNDYYDTMDYWGQGTSVTVSS
VL: DIQMTQSPSSMSASVGERVTITCRASQDINSYLSWFQQKPGKSPKTLIYRVNRLVDGVPSRFSGSGSGQDYSLTISSLEPEDMGIYYCLQYDAFPYTFGQGTKLEIKR
As to B1, the IC50, in vitro cytotoxicity assay (WST-8), EOL-1 cells amounted to 2 pM; the IC50, in vitro cytotoxicity assay (WST-8), KOPN-8 cells amounted to 5 pM; the IC50, in vitro cytotoxicity assay (WST-8), MOLM-1 cells worked out at 0.02 nM; the fold loss of cytotoxicity when CD123 is blocked by chCD123-6 is 100 fold.
